Measured values as given in US20190119318A1.
Where “and” joins values, the source holds several entries; their conditions need not be identical. Identical values can stand only once.

Experiments:
[1] = target: human polyclonal IgG (Gammanorm) (human); assay: column DBC; base C1; ligand […]
[2] = target: human polyclonal IgG (Gammanorm) (human); assay: column DBC; base C2; ligand […]
[3] = target: human polyclonal IgG (Gammanorm) (human); assay: column DBC; base C3; ligand […]; settings: ligand content 5.9 mg/ml
[4] = target: human polyclonal IgG (Gammanorm) (human); assay: column DBC; base A32; ligand […]
[5] = target: human polyclonal IgG (Gammanorm) (human); assay: column DBC; base A42; ligand […]
[6] = target: human polyclonal IgG (Gammanorm) (human); assay: column DBC; base A62b; ligand […]; settings: ligand content 5.2 mg/ml
[7] = target: human polyclonal IgG (Gammanorm) (human); assay: column DBC; base A65b; ligand […]
[8] = target: human polyclonal IgG (Gammanorm) (human); assay: SPR; after 100 CIP cycles 0.5 M NaOH
[9] = target: human polyclonal IgG (Gammanorm) (human); assay: SPR; after 300 CIP cycles 0.5 M NaOH
[10] = target: human polyclonal IgG (Gammanorm) (human); assay: column DBC; base B5; ligand 6.3 mg/ml
[11] = target: human polyclonal IgG (Gammanorm) (human); assay: column DBC; base B5; ligand 9.6 mg/ml
[12] = target: human polyclonal IgG (Gammanorm) (human); assay: column DBC; base C3; ligand 9.0 mg/ml
[13] = target: human polyclonal IgG (Gammanorm) (human); assay: column DBC; base A18; ligand 8.2 mg/ml
[14] = target: human polyclonal IgG (Gammanorm) (human); assay: column DBC; base A20; ligand 7.3 mg/ml
[15] = target: human polyclonal IgG (Gammanorm) (human); assay: column DBC; base A33; ligand 7.3 mg/ml
[16] = target: human polyclonal IgG (Gammanorm) (human); assay: column DBC; base A33; ligand 9.4 mg/ml
[17] = target: human polyclonal IgG (Gammanorm) (human); assay: column DBC; base A39; ligand 7.0 mg/ml
[18] = target: human polyclonal IgG (Gammanorm) (human); assay: column DBC; base A41; ligand 5.0 mg/ml
[19] = target: human polyclonal IgG (Gammanorm) (human); assay: column DBC; base C2; ligand 10.5 mg/ml
[20] = target: human polyclonal IgG (Gammanorm) (human); assay: column DBC; base A20; ligand 10.6 mg/ml
[21] = target: human polyclonal IgG (Gammanorm) (human); assay: column DBC; base A33; ligand 7.33 mg/ml
[22] = target: human polyclonal IgG (Gammanorm) (human); assay: column DBC; base A38; ligand 11.3 mg/ml
[23] = target: human polyclonal IgG (Gammanorm) (human); assay: column DBC; base A38; ligand 7.45 mg/ml
[24] = target: human polyclonal IgG (Gammanorm) (human); assay: column DBC; base A39; ligand 10.5 mg/ml
[25] = target: human polyclonal IgG (Gammanorm) (human); assay: column DBC; base A39; ligand 6.96 mg/ml
[26] = target: human polyclonal IgG (Gammanorm) (human); assay: column DBC; base A40; ligand 11.0 mg/ml
[27] = target: human polyclonal IgG (Gammanorm) (human); assay: column DBC; base A40; ligand 13.2 mg/ml
[28] = target: human polyclonal IgG (Gammanorm) (human); assay: column DBC; base A41; ligand 13.0 mg/ml
[29] = target: human polyclonal IgG (Gammanorm) (human); assay: column DBC; base A41; ligand 8.83 mg/ml
[30] = target: human polyclonal IgG (Gammanorm) (human); assay: column DBC; base A43; ligand 6.99 mg/ml
[31] = target: human polyclonal IgG (Gammanorm) (human); assay: column DBC; base A62a; ligand 6.6 mg/ml
[32] = target: human polyclonal IgG (Gammanorm) (human); assay: column DBC; base A62a; ligand 9.7 mg/ml
[33] = target: human polyclonal IgG (Gammanorm) (human); assay: column DBC; base A63a; ligand 6.6 mg/ml
[34] = target: human polyclonal IgG (Gammanorm) (human); assay: column DBC; base A65a; ligand 6.1 mg/ml
[35] = target: human polyclonal IgG (Gammanorm) (human); assay: column DBC; base A39; ligand 10.48 mg/ml
[36] = target: human polyclonal IgG (Gammanorm) (human); assay: column DBC; base A43; ligand 10.51 mg/ml
[37] = target: human polyclonal IgG (Gammanorm) (human); assay: column DBC; base A62a; ligand 14.8 mg/ml
[38] = target: human polyclonal IgG (Gammanorm) (human); assay: column DBC; base A65a; ligand 13.6 mg/ml
[39] = target: human polyclonal IgG (Gammanorm) (human); assay: column DBC; ligand 12 mg/ml; before incubation in 1 M NaOH
[40] = target: human polyclonal IgG (Gammanorm) (human); assay: column DBC; ligand 16 mg/ml; before incubation in 1 M NaOH

## Zvar(Q9A,N11E,Q40V,A42K,N43A,L44I)4 (designed binder)
[1]
  Qb10% 2.4 min: 38 mg/mL
  Qb10% 6 min: 47 mg/mL
[2]
  Qb10% 2.4 min: 39 mg/mL
  Qb10% 6 min: 46 mg/mL
[3]
  Qb10% 2.4 min: 44 mg/mL
  Qb10% 6 min: 52 mg/mL
[4]
  Qb10% 2.4 min: 40 mg/mL
  Qb10% 6 min: 57 mg/mL
[5]
  Qb10% 2.4 min: 32.2 mg/mL
  Qb10% 6 min: 57.8 mg/mL
[6]
  Qb10% 2.4 min: 40 mg/mL
[7]
  Qb10% 2.4 min: 42 mg/mL
  Qb10% 6 min: 46 mg/mL
[8]
  remaining capacity 100 cycles: 90%
[9]
  remaining capacity 300 cycles: 57%
[10]
  Qb10% 2.4 min: 32 mg/mL
  Qb10% 6 min: 38 mg/mL
[11]
  Qb10% 2.4 min: 45 mg/mL
  Qb10% 6 min: 47 mg/mL
[12]
  Qb10% 2.4 min: 49 mg/mL
  Qb10% 6 min: 62 mg/mL
[13]
  Qb10% 2.4 min: 52 mg/mL
  Qb10% 6 min: 59 mg/mL
[14]
  Qb10% 2.4 min: 45.1 mg/mL and 45 mg/mL
  Qb10% 6 min: 57.2 mg/mL and 57 mg/mL
[15]
  Qb10% 2.4 min: 49 mg/mL
  Qb10% 6 min: 56 mg/mL
[16]
  Qb10% 2.4 min: 51 mg/mL
  Qb10% 6 min: 58 mg/mL
[17]
  Qb10% 2.4 min: 42 mg/mL
  Qb10% 6 min: 55 mg/mL
[18]
  Qb10% 2.4 min: 35.6 mg/mL
  Qb10% 6 min: 46 mg/mL
[19]
  Qb10% 2.4 min: 42 mg/mL
  Qb10% 6 min: 57 mg/mL
[20]
  Qb10% 2.4 min: 50.7 mg/mL and 51 mg/mL
  Qb10% 6 min: 70.1 mg/mL and 70 mg/mL
[21]
  Qb10% 2.4 min: 48.7 mg/mL
  Qb10% 6 min: 55.8 mg/mL
[22]
  Qb10% 2.4 min: 48 mg/mL
  Qb10% 6 min: 73 mg/mL
[23]
  Qb10% 2.4 min: 44.4 mg/mL
  Qb10% 6 min: 58.2 mg/mL
[24]
  Qb10% 2.4 min: 44 mg/mL
  Qb10% 6 min: 65 mg/mL
[25]
  Qb10% 2.4 min: 41.9 mg/mL
  Qb10% 6 min: 54.7 mg/mL
[26]
  Qb10% 2.4 min: 55 mg/mL
  Qb10% 6 min: 74 mg/mL
[27]
  Qb10% 2.4 min: 57 mg/mL
  Qb10% 6 min: 71 mg/mL
[28]
  Qb10% 2.4 min: 35 mg/mL
  Qb10% 6 min: 62.2 mg/mL
[29]
  Qb10% 2.4 min: 38.5 mg/mL and 37.8 mg/mL and 35.1 mg/mL
  Qb10% 6 min: 56.8 mg/mL and 58.6 mg/mL and 57.2 mg/mL
[30]
  Qb10% 2.4 min: 33.4 mg/mL
  Qb10% 6 min: 49.8 mg/mL
[31]
  Qb10% 2.4 min: 41 mg/mL
  Qb10% 6 min: 46 mg/mL
[32]
  Qb10% 2.4 min: 48 mg/mL
  Qb10% 6 min: 60 mg/mL
[33]
  Qb10% 2.4 min: 40 mg/mL
  Qb10% 6 min: 44 mg/mL
[34]
  Qb10% 2.4 min: 40 mg/mL
  Qb10% 6 min: 44 mg/mL
[35]
  Qb10% 2.4 min: 44.4 mg/mL
  Qb10% 6 min: 64.8 mg/mL
[36]
  Qb10% 2.4 min: 31.8 mg/mL
  Qb10% 6 min: 58 mg/mL
[37]
  Qb10% 2.4 min: 55 mg/mL
  Qb10% 6 min: 62 mg/mL
[38]
  Qb10% 2.4 min: 52 mg/mL
  Qb10% 6 min: 61 mg/mL
[39]
  Qb10%, 6 min, before incubation: 78 mg/mL
[40]
  Qb10%, 6 min, before incubation: 73 mg/mL
